Measured values taken from patent US20110070156A1 (published 2011).

T1: Trop-2 (EGP-1, epithelial glycoprotein-1) (human, UniProt P09758 27-323)
T1 construct: whole, on cells
T1 sequence (looked up): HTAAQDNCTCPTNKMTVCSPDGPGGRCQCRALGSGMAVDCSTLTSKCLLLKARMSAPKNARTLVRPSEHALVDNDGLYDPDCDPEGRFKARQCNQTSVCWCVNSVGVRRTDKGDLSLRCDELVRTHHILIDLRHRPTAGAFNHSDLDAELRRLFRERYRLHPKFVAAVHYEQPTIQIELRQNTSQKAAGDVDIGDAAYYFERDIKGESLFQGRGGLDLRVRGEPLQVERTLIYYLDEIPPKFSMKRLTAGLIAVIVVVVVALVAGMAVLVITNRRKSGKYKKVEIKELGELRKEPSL

B1: hRS7 IgG (humanized RS7, anti-Trop-2 / anti-EGP-1) (antibody, V domains shown)
VH: QVQLQQSGSELKKPGASVKVSCKASGYTFTNYGMNWVKQAPGQGLKWMGWINTYTGEPTYTDDFKGRFAFSLDTSVSTAYLQISSLKADDTAVYFCARGGFGSSYWYFDVWGQGSLVTVSS
VL: DIQLTQSPSSLSASVGDRVSITCKASQDVSIAVAWYQQKPGKAPKLLIYSASYRYTGVPDRFSGSGSGTDFTLTISSLQPEDFAVYYCQQHYITPLTFGAGTKVEIKR

Assays:
[1] = biological target: Trop-2 (EGP-1, epithelial glycoprotein-1) (human) (UniProt P09758); assay: cell-based or functional assay
[2] = biological target: Trop-2 (EGP-1, epithelial glycoprotein-1) (human) (UniProt P09758); assay: ELISA on Trop-2-expressing cell lines PC-3 and Calu-3
[3] = biological target: Trop-2 (EGP-1, epithelial glycoprotein-1) (human) (UniProt P09758)
[4] = biological target: T1, Trop-2 (EGP-1, epithelial …); assay: ELISA on Trop-2-expressing cell lines PC-3 and Calu-3; apparent dissociation constant

Molecule	EC50, MTS cell proliferation assay, Calu-3 cells [1] [nM]	EC50, MTS cell proliferation assay, MDA-MB-468 cells [1] [nM]	EC50, MTS cell proliferation assay, ME-180 cells [1] [nM]	EC50, MTS cell proliferation assay, T-47D cells [1] [nM]	fold of apparent KD against hRS7 [2] [fold]	Kd [3] [nM]	Kd [4] [nM]
2L-Rap(Q)-hRS7	8.5	3.8	1.5	2	2	0.28	–
B1	–	–	–	–	–	–	0.14
